According to patent publication CN114426582A (SHAANXI PULSE ELEMENT BIOTECHNOLOGY LTD COMPANY, dated 2022):

Legend:
[1] = molecular target: T1, 纯化的ENO2蛋白 (coating protein of the Example 7 ELISA) (human, UniProt P09104 1-434); test: ELISA, ENO2-coated plate (100 ng/well), 293T supernatant, HRP anti-IgG / anti-kappa secondary
T1 construct: also called 抗原ENO2

[2] = molecular target: T2, ENO2-GST (human ENO2 expressed from pGEX 4t-1, GST-column purified) (human, UniProt P09104 1-434); test: ELISA screening of hybridoma supernatants on ENO2-GST coated plates
T2 construct: Expressed in E. coli BL21(DE3) and used to coat ELISA plates at 100 ng/well; also called pGEX 4t-1载体表达的ENO2; ENO2-4t-1; not shown: GST tag supplied by vector pGEX 4t-1

[3] = molecular target: T3, ENO2flag (ENO2 with C-terminal flag tag, pcDNA3.1, expressed in 293T cells) (human, UniProt P09104 2-434, limits assumed); test: Western blot, lysate of 293T cells transfected with ENO2flag-pcDNA3.1, hybridoma supernatant
T3 construct: Tested as a lysate of transfected 293T cells (Western blot) and in acetone-fixed transfected 293T cells (immunofluorescence); also called ENO2flag-pcDNA3.1; ENO2抗原; not shown: C-terminal flag tag
T3 sequence (P09104 2-434 limits assumed): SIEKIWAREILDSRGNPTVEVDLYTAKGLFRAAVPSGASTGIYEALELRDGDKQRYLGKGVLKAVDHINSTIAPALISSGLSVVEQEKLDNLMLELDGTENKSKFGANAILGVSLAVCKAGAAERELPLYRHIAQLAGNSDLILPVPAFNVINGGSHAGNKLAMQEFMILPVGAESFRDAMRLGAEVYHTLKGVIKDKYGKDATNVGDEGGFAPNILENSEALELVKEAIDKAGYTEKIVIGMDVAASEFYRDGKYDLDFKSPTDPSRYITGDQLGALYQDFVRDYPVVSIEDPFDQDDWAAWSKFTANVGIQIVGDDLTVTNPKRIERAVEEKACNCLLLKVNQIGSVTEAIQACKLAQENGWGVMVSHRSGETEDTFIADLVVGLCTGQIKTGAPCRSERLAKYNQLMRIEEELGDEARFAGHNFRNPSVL

T1 sequence (P09104 whole entry): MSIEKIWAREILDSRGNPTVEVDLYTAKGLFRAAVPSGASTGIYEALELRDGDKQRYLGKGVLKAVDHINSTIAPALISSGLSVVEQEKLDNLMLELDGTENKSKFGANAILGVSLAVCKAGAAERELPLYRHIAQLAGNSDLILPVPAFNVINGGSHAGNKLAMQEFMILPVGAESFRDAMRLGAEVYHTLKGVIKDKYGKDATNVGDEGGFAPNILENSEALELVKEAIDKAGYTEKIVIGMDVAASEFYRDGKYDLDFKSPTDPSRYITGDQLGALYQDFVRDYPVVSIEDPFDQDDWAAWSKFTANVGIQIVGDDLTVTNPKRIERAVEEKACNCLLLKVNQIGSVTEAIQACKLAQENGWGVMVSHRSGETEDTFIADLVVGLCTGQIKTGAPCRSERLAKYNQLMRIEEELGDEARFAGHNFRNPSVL
T2 sequence (P09104 whole entry): as above

binding result [1]	binding result [2]	binding result [3]	Binder
no binding			重组4C11抗体轻链4C11mk (transfected alone) (other, Light chain only, with no heavy chain; tested as 293T culture supernatant) light: DIQMTQTTSSLSASLGDRVTISCRASQDISNYLNWYQQKPDGTVKLLIYYTSRLHSGVPSRFSGSGSGTDYSLTISNLEQEDIATYFCQQGNTLPYTFGGGTRLEIRRADAAPTVSIFPPSSEQLTSGGASVVCFLNNFYPKDINVKWKIDGSERQNGVLNSWTDQDSKDSTYSMSSTLTLTKDEYERHNSYTCEATHKTSTSPIVKSFNRNEC
	binds	binds	抗神经特异性烯醇化酶的单克隆抗体4C11 (hybridoma-derived) (antibody, V domains shown, Mouse hybridoma antibody; It was tested as hybridoma supernatant or ascites; also called 4C11单克隆抗体) VH: EVKLVESGGGLVQPGGSLRLSCATSGFTFTDYYMSWVRQPPGKALEWLGFIRNKANGYTTEYSASVKGRFTISRDNSQSILYLQMNTLRAEDSATYYCARDGDGSARWGQGTLVTVSA VL: DIQMTQTTSSLSASLGDRVTISCRASQDISNYLNWYQQKPDGTVKLLIYYTSRLHSGVPSRFSGSGSGTDYSLTISNLEQEDIATYFCQQGNTLPYTFGGGTRLEIR
no binding			重组4C11抗体重链4C11mG1 (transfected alone) (other, Heavy chain only, with no light chain; tested as 293T culture supernatant; not shown: mouse IgG1 heavy-chain constant region supplied by vector pFUSE-CHIg-mG1 (invivogen)) heavy: EVKLVESGGGLVQPGGSLRLSCATSGFTFTDYYMSWVRQPPGKALEWLGFIRNKANGYTTEYSASVKGRFTISRDNSQSILYLQMNTLRAEDSATYYCARDGDGSARWGQGTLVTVSA
